For 12 sequences, protein production results are on record in a protein production outcome set (Wang et al. 2014).

The nature of this data set: label from the status in PepcDB records.

For “MEGITSFENLPEELKREILLRMSPNSLVTCSRVSKKLASMIRTKSFKELYLSRSMRCPRVLFAANGTITPHVLFTSFQEKEKPLLSSGEQRIITSLQGEFLFSPPVRGLICLVERESARIVICNPGTTKFLALPIVEADETTRIITHLGYDEQKDVFKVLCTRTKPETPHLVLTVGSGKEPWREIVCKFPHTVIGAGVFYRGTLYYLAAFHSKSIIMTFDVRSETFMPITSPDGVDLNQGSWRLVNYSQQGGFALVNESRGFIYQSNGGDAYLETWVWNVDTRKWSMNSILIRKWKDYAQDNEDYDYRFRGTQGTYELVFAPIRVKEDGSLTVILYNTDTQAFRRSKVQMMGEGHEFRFVDTFLDHVDSTLLI”, the protein production entry is reported as “failed”.

As to “MEGKTLIVSVLIMSLFMAQNQVDANICCPSIQARTFYNACLFAVGSPSSCIRNSSCLDISESTCPRGYTNDILENTGDAVTEYCKLGCVSSVCGALTILQNSDASEIVNGEVEKCTMACSTVCTKGSMNAVENA”, the protein production entry was “failed”.

In the case of “MEGLAAFIIITLMIIIVPGPDFFVVMKNSITSGKGNGAMAALGITSGHVVYSLLAVFGIIFILANMYYVFVTIKILGAIYLIYLGIRSIISARQSMNFSTSQLKAQRITYLSSYRQGFFSTILNPKALLYYISILPQFLSTGEAVTSQIAILTAIVTTVILLWFIFCVYIFQYIKLLFTNRKIKAIFDYTVGAILIGLSLNLLLSKSS”, the protein production result is listed as “failed”.

For “MEGNQAGSSLDSLIASFNKRIGELQELVIARNMYPASTIPDLSAIDTALSSMELQVQSIKDRLREETEAIPKAKKLIEASLKQQGKLQKMSIYAPSHFPDKATMLNSDLNRCLLQENAKQYEQHSTLSSLKFDEEAAVLPKEKKGRGSPPLWYITVEELNSLSSYMRGRLTLEKVNAAINDMASYAEANAHLIAASKQKLAENLWEKALKLRDIVTEQAVKGKHFFLETDMKGPSLKLDNTGKAILTVLRHLGRISETRIGQNRVIILMKPH”, the protein production entry is “failed”.

As for “MEGNSDSMILVTVNPKTKKTTMTSLERDILVKLSGSKTNDQTGYDAKLNAAYAAGGAKMAIMTVQDMLDIKIDKYVQINMEGLVQLVDAVGGITVTNHFDFPISIEEHEPEFTASVEPGTHKINGEQALVYSRMRYDDPDGDYGRQKRQREVISKVLKKILALDSVSKYRKILSAVSKNMQTNIEISSSTIPKLLGYSDALKSIRTYQLKGEGTTIDGGSYQLVTSKELLKAQNRIKGQLGLKKSTAENLKTTASLYENFYGGDTSIYDSSSSASDYSSSGNYSGSSSDYGSSSSYGSNSSSGSSSDYSGQNSYNQGNYQQPAAGTGIGNLEHHHHHH”, the protein production result is given as “not failed”.

On to “MEGSTGFDGDATTFFAPDAVFGDRVRRFQEFLDTFTSYRDSVRSIQVYNSNNAANYNDDQDDADERDLLGDDDGDDLEKEKKAASSTSLNILPHRIIISLDDLREFDRSFWSGILVEPAYFIPPAEKALTDLADSMDDVPHPNASAVSSRHPWKLSFKGSFGAHALSPRTLTAQHLNKLVSVEGIVTKTSLVRPKLIRSVHYAAKTGRFHYRDYTDATTTLTTRIPTPAIYPTEDTEGNKLTTEYGYSTFIDHQRITVQEMPEMAPAGQLPRSIDVILDDDLVDKTKPGDRVNVVGVFKSLGAGGMNQSNSNTLIGFKTLILGNTVYPLHARSTGVAARQMLTDFDIRNINKLSKKKDIFDILSQSLAPSIYGHDHIKKAILLMLMGGVEKNLENGSHLRGDINILMVGDPSTAKSQLLRFVLNTASLAIATTGRGSSGVGLTAAVTTDRETGERRLEAGAMVLADRGVVCIDEFDKMTDVDRVAIHEVMEQQTVTIAKAGIHTTLNARCSVIAAANPVFGQYDVNRDPHQNIALPDSLLSRFDLLFVVTDDINEIRDRSISEHVLRTHRYLPPGYLEGEPVRERLNLSLAVGEDADINPEEHSNSGAGVENEGEDDEDHVFEKFNPLLQAGAKLAKNKGNYNGTEIPKLVTIPFLRKYVQYAKERVIPQLTQEAINVIVKNYTDLRNDDNTKKSPITARTLETLIRLATAHAKVRLSKTVNKVDAKVAANLLRFALLGEDIGNDIDEEESEYEEALSKRSPQKSPKKRQRVRQPASNSGSPIKSTPRRSTASSVNATPSSARRILRFQDDEQNAGEDDNDIMSPLPADEEAELQRRLQLGLRVSPRRREHLHAPEEGSSGPLTEVGTPRLPNVSSAGQDDEQQQSVISFDNVEPGTISTGRLSLISGIIARLMQTEIFEEESYPVASLFERINEELPEEEKFSAQEYLAGLKIMSDRNNLMVADDKVWRV”, for which the protein production entry is “failed”.

Consider “MEGTLSFVSGFAPAVYRRELFRHRCVTTAPEARAWPRLGLLRANSGARLSRVDITPEIYKRLVSMAKRTEGNFSAVAGAILESYLTAATNRDLRAVIFDMDGVLCDSERLSRAAGVEYFRRYHGVWPTEKDFADFAGTGEAAFLSGVARRYSVKDFDVNKAKEGFFNIYVNEYVSALEPFEGVREFIQQIKTMGLKTALASSADAIKVHANLSAIGFERDMFDFVTRSDEIANKKPAPDIFLAAAEGLGVPPESCVVIEDAPAGVLAAKRARMRCVAVATSVSAQLLWDAGADIVRPAPQYIMLDDIVITDDADASAPASASQE”, for which the protein production entry is recorded as “failed”.

For “MEGYSRNGEISPKLLDLMIPQERRNWFHDEKNSVFKTEEKKLELKLGPPGEEDDDESMIRHMKKEPKDKSILSLAGKYFSPSSTKTTSHKRTAPGPVVGWPPVRSFRKNLASGSSSKLGNDSTTSNGVTLKNQKCDAAAKTTEPKRQGGMFVKINMYGVPIGRKVDLSAHNSYEQLSFTVDKLFRGLLAAQRDFPSSIEDEKPITGLLDGNGEYTLTYEDNEGDKMLVGDVPWQMFVSSVKRLRVIKTSEISSALTYGNGKQEKMRR”, the protein production entry is reported as “failed”.

Regarding “MEHSSGTKLLLTLSLFFCLISGAEAADSHALDSGDVNLSELKAFDLLCKCETWGIVNTVSLSSTGNYLVAGGFDRNVSLFDSRGTQLWNYKTEDIVYTVSISSDGSRIVAGSNDKKVYFFNREGDLLWSHKTGGNINSVAVSSNGLYVAAGGEDGKVYFMNSAGKLLWSFDSEAAVRSIAISRDGTYVAVGNANNYVYLFDSEGKTIWNRKTGSLINCVSMTPYAYYVAAGGSNYNVYLFDRKGEFSWMNNPGYWVSSVSLTTNGAYLAAGSFDDMIYLFNRTGGKIWDYKAKDDVYAVEISADSSFIAAGSWDDTLYVLNMDGEELWNYNCGGNINSLDVSRDSTTIAVGSDAGAVYLFERNPTAFALLLGDESFLPEETTKETDTSLAEKTIKPIEEETAVTGGVENKVEDAPATSSSVSGNPKTGENPGSEELPTEESSLKLLEKFDSIKFPAALLLGALAGTVFFLKRRLVKYHEKNDENLEDLEEKDIRE”, the protein production result is recorded as “failed”.

For “MEIAPSTSRFKLYDQFELLEFPDKYVVKPIESPEEGFSVNRRDGNIKPLDENASSGSPTRVSTIYGVGGTIRLLAGTYLLVITSREEVGNFLGLPIFRVTAMKFLPCNEALRFATAQEKKDETYFRTLLQALETTPGLYFSYETDLTLNLQRRCKLAEGWNRKPMWKQADPRYVWNWHLLEDLIECKLDGFIIPILQGSYQVAELKLKNSPAVVSIMSRRCTRRLGTRMWRRGANLEGDAANFVESEQIVEINGFKFSLLQVRGSIPLLWEQIVDLSYKPRLKINKHEETPKVVQRHFHDLCQRYGEIMAVDLTDQHGDEGALSKAYATEMEKLPDVRYVSFDFHQVCGTTNFDNLGVLYEQIGDEFEKQGYFLVDADENILEEQKGVIRSNCIDCLDRTNVTQSFMGQKSLNLQLQRIGVCDSTECISTFEDDYTKFRTIWAEQGDEVSLQYAGTYALKGDLVRYGKQTMTGAIKDGLSAMSRYYLNNFQDGVRQDALDLISGRYTVGTHSPSQLQPIGSQPSFLPVASALLIGGVTVTSFTIHQAGRNTQQYLASALWAGVTAGVVAMIKANGRHLTSRPRLCHLI”, the protein production entry is given as “failed”.

With “MEIGLSLGLKSDEGGLKLSLSECGCHVEDITIELEGGASWFYQGMVNAFKDQIGSSVESTIAKKLTEGVSDLDSFLQSLPKEIPVDDNADLNVTFTSDPILRNSSITFEIDGLFTKGETNQVLKSFFKKSVSLVICPGNSKMLGISVDEAVFNSAAALYYNADFVQWVVDKIPEQSLLNTARWRFIIPQLYKKYPNQDMNLNISLSSPPLVKISEQYVGANVNADLVINVLDANQVIPVACISLMIRGSGALRVMGNNLGGSVSLEDFSMSLKWSNIGNLHLHLLQPIVWTVIQTVFVPYANDHLEKGFPLPIMHGFTLQNAEIICSESEITVCSDVAYLDSSQQPQWL”, the protein production entry is on record as “failed”.

Consider “MEIGRVVGNVWATRKDEKLNGQKFLIVKLLVSKDKEKEGLFVAADNAGAGIGDIVLITKGGAARQSIGNREVPIDAAIVGIVDSIDIEEDLEHHHHHH”, for which the protein production entry is reported as “not failed”.
